No end group written: not given here. *: point of attachment. (PEG)2 40 kDa = branched PEG of 40 kDa linked via the Cys side-chain thiol (code C2 = Cys(PEG)2 40 kDa); Succinimide(1-Et,3-yl) = CCN1C(=O)CC(*)C1=O
T1: human NMUR1 (human, UniProt Q9HB89 1-426)
T1 sequence (looked up): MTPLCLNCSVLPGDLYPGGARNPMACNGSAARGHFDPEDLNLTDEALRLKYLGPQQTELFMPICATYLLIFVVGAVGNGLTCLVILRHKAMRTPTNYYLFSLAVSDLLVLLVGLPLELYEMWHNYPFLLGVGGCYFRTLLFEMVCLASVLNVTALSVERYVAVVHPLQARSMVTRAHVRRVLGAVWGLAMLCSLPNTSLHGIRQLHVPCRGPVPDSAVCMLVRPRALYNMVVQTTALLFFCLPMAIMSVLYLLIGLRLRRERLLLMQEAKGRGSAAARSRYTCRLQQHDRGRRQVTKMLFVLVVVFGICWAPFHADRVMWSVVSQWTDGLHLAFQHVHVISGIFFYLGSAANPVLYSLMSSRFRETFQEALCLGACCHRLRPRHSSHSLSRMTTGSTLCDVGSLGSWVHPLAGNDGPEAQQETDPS

T2: mouse NMUR1-ATG (mouse, UniProt O55040 1-428)
T2 sequence (looked up): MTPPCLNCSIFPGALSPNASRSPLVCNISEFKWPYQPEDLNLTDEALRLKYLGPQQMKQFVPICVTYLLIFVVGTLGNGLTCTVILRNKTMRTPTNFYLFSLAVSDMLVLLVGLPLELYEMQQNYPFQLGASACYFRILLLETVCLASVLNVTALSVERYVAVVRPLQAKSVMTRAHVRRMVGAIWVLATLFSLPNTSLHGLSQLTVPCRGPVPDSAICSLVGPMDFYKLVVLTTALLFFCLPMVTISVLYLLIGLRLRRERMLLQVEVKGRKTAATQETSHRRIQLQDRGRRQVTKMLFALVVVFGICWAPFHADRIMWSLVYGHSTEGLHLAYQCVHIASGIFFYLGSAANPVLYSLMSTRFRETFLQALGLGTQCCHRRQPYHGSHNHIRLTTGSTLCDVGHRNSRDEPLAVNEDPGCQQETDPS

T3: mouse NMUR1-CTG (mouse, UniProt O55040 1-428)
T3 sequence (looked up): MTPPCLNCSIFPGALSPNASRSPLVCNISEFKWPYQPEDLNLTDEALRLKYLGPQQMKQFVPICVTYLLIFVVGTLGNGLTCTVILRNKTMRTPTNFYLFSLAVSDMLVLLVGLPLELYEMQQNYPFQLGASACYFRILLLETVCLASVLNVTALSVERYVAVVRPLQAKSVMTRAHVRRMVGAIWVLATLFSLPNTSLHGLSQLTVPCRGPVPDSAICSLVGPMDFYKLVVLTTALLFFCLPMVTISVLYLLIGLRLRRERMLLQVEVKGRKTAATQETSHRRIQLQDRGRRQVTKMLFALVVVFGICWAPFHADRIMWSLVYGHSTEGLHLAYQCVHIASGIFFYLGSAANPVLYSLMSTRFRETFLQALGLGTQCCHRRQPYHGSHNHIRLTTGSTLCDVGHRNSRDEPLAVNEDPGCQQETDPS

T4: rat NMUR1-ATG (rat, UniProt Q9JJI5 1-425)
T4 sequence (looked up): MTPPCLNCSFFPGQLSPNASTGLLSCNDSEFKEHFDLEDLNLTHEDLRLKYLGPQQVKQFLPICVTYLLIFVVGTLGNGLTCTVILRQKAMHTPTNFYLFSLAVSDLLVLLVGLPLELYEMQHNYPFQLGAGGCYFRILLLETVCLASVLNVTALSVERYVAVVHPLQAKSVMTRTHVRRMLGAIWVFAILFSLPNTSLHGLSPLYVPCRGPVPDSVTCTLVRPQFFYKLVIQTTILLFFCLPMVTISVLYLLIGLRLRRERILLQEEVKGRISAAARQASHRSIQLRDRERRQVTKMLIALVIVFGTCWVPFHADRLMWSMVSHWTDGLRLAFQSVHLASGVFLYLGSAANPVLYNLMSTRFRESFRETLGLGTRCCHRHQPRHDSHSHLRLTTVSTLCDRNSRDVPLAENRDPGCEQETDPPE


Columns and labels:
Assay in all cases: cell-based or functional assay
human NMUR1 = target: T1, human NMUR1
human NMUR2 = human NMUR2 (human, UniProt Q9GZQ4 1-415)
Sequence of human NMUR2 (Q9GZQ4 whole entry): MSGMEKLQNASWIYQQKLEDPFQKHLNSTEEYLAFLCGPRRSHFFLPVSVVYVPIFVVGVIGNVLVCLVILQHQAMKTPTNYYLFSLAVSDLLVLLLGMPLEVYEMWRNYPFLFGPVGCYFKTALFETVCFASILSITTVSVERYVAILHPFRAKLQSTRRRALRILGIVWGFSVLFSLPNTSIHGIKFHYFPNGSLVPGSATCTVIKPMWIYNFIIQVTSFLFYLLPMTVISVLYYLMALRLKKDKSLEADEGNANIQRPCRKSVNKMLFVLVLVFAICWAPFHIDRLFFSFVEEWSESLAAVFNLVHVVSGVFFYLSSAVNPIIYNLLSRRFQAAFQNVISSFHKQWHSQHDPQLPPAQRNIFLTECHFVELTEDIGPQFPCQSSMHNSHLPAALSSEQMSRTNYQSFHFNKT

mouse NMUR1-ATG = target: T2, mouse NMUR1-ATG
mouse NMUR1-CTG = target: T3, mouse NMUR1-CTG
mouse NMUR2 = mouse NMUR2 (mouse, UniProt Q8BZ39 1-395)
Sequence of mouse NMUR2 (Q8BZ39 whole entry): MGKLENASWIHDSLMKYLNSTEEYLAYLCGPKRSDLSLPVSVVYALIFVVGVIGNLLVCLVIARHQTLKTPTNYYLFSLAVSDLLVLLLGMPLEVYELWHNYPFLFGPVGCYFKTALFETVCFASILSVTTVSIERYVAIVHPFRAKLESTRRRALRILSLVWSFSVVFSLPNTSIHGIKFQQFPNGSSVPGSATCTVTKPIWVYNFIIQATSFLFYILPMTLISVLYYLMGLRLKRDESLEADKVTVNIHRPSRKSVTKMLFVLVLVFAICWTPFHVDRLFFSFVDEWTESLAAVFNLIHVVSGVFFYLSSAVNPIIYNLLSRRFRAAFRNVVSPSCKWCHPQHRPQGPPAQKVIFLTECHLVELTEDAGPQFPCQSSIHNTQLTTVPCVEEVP

rat NMUR1-ATG = target: T4, rat NMUR1-ATG
rat NMUR2 = rat NMUR2 (rat, UniProt Q9ESQ4 1-395)
Sequence of rat NMUR2 (Q9ESQ4 whole entry): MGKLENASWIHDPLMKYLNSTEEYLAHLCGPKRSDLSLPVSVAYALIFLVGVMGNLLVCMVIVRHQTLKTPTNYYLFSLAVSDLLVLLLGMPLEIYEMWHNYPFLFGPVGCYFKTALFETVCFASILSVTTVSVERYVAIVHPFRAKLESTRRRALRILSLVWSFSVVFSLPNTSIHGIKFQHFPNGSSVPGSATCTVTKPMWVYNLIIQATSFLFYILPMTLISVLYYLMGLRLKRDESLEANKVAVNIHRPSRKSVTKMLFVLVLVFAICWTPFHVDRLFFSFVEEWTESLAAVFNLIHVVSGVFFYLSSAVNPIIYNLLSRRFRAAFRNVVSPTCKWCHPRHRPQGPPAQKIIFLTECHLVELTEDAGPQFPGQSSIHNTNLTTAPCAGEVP

Binder	% Activity (FLIPR) (human NMUR1) [%]	EC50 (FLIPR) (human NMUR1) [nM]	% Activity (FLIPR) (human NMUR2) [%]	EC50 (FLIPR) (human NMUR2) [nM]	% Activity (FLIPR) (mouse NMUR1-ATG) [%]	EC50 (FLIPR) (mouse NMUR1-ATG) [nM]	% Activity (FLIPR) (mouse NMUR1-CTG) [%]	EC50 (FLIPR) (mouse NMUR1-CTG) [nM]	% Activity (FLIPR) (mouse NMUR2) [%]	EC50 (FLIPR) (mouse NMUR2) [nM]	% Activity (FLIPR) (rat NMUR1-ATG) [%]	EC50 (FLIPR) (rat NMUR1-ATG) [nM]	% Activity (FLIPR) (rat NMUR2) [%]	EC50 (FLIPR) (rat NMUR2) [nM]
Ac-C((PEG)2 40 kDa)GYFLFRPRN-NH2 [NMU7]	91.4	79.6	91.8	36.1										
GYFLFRPRN-NH2 [NMU3]	98.9	5.6	100	1.9	100	2.9	100	4.7	100	1	100	0.7	100	1.8
Ac-C(Succinimide(1-Et,3-yl))GYFLFRPRN-NH2 (SMILES CCN1C(=O)CC(SC[C@H](NC(C)=O)C(=O)NCC(=O)N[C@@H](Cc2ccc(O)cc2)C(=O)N[C@@H](Cc2ccccc2)C(=O)N[C@@H](CC(C)C)C(=O)N[C@@H](Cc2ccccc2)C(=O)N[C@@H](CCCNC(=N)N)C(=O)N2CCC[C@H]2C(=O)N[C@@H](CCCNC(=N)N)C(=O)N[C@@H](CC(N)=O)C(N)=O)C1=O) [NMU6]	96.7	3.5	100	1.5	100	1	100	2	100	0.7	100	1	100	1.5
Ac-FRVDEEFQSPFASQSRGYFLFRPRN-NH2 [NMU2]	99	5.5	97.4	2.6	100	2.1	100	8.3	100	1.2	89.2	3.3	100	2.2
FRVDEEFQSPFASQSRGYFLFRPRN-NH2 (not fully specified (N-terminus)) [NMU1]	83.7	81.4	85	64.8					95.7	31	59.3	718	87.1	71.7
Ac-FRVDEEFQSPFASQSRPYFLFRPRN-NH2 [NMU5]	98.1	6.1	98.1	2.5	100	3.3	100	11.9	100	1	100	3.6	100	2.3
FRVDEEFQSPFASQSRPYFLFRPRN-NH2 [NMU4]	97	7.2	100	2.6	100	3.6	100	11.6	100	1.2	100	3.8	100	2.9

From US20070244048A1 (published 2007)
